The supplement of paper PMC9112550, “Optimization of the antimicrobial peptide Bac7 by deep mutational scanning” (BMC Biology, 2022)

System: Escherichia coli TOP10
Experiment: shrunken log2 fold change of peptide-encoding DNA abundance (4.5 h post-induction vs induction); higher = less antimicrobial activity (less host growth inhibition)
Settings: time post-induction: 4.5 h; library: site-saturation at positions 5, 18, 19, 20
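Note: peptides expressed intracellularly from a pBAD plasmid library in pooled LB shake-flask culture, induced with 0.3% L-arabinose, DNA abundance read by NGS, three biological replicates, DESeq2 with apeglm shrinkage.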

Sequence: RRIRARPPRLPRPRPRPHCHPRP
- shrunken log2 fold change: -0.195

Sequence: RRIRARPPRLPRPRPRPHCRPRP
- shrunken log2 fold change: -0.0687

Sequence: RRIRARPPRLPRPRPRPHDYPRP
- shrunken log2 fold change: 0.141

Sequence: RRIRARPPRLPRPRPRPHEPPRP
- shrunken log2 fold change: 0.00298

Sequence: RRIRARPPRLPRPRPRPHFEPRP
- shrunken log2 fold change: 0.703

Sequence: RRIRARPPRLPRPRPRPHGDPRP
- shrunken log2 fold change: 0.362

Sequence: RRIRARPPRLPRPRPRPHKRPRP
- shrunken log2 fold change: 0.157

Sequence: RRIRARPPRLPRPRPRPHMFPRP
- shrunken log2 fold change: 0.0892

Sequence: RRIRARPPRLPRPRPRPHNTPRP
- shrunken log2 fold change: -0.235

Sequence: RRIRARPPRLPRPRPRPHNYPRP
- shrunken log2 fold change: -0.303

Sequence: RRIRARPPRLPRPRPRPHPGPRP
- shrunken log2 fold change: 0.219

Sequence: RRIRARPPRLPRPRPRPHPKPRP
- shrunken log2 fold change: 0.508

Sequence: RRIRARPPRLPRPRPRPHPLPRP
- shrunken log2 fold change: -0.0796

Sequence: RRIRARPPRLPRPRPRPHQHPRP
- shrunken log2 fold change: -0.109

Sequence: RRIRARPPRLPRPRPRPHQIPRP
- shrunken log2 fold change: 0.354

Sequence: RRIRARPPRLPRPRPRPHRNPRP
- shrunken log2 fold change: 0.192

Sequence: RRIRARPPRLPRPRPRPHVCPRP
- shrunken log2 fold change: -0.297

Sequence: RRIRARPPRLPRPRPRPIANPRP
- shrunken log2 fold change: 0.103

Sequence: RRIRARPPRLPRPRPRPIAVPRP
- shrunken log2 fold change: 0.166

Sequence: RRIRARPPRLPRPRPRPICFPRP
- shrunken log2 fold change: 1.21

Sequence: RRIRARPPRLPRPRPRPIEHPRP
- shrunken log2 fold change: 0.126

Sequence: RRIRARPPRLPRPRPRPIFAPRP
- shrunken log2 fold change: 0.555

Sequence: RRIRARPPRLPRPRPRPIFFPRP
- shrunken log2 fold change: 0.388

Sequence: RRIRARPPRLPRPRPRPIFSPRP
- shrunken log2 fold change: -0.00994

Sequence: RRIRARPPRLPRPRPRPIGCPRP
- shrunken log2 fold change: 0.445

Sequence: RRIRARPPRLPRPRPRPIGIPRP
- shrunken log2 fold change: 0.0254

Sequence: RRIRARPPRLPRPRPRPIGRPRP
- shrunken log2 fold change: 0.00162

Sequence: RRIRARPPRLPRPRPRPIGWPRP
- shrunken log2 fold change: 0.488

Sequence: RRIRARPPRLPRPRPRPIHDPRP
- shrunken log2 fold change: -0.0961

Sequence: RRIRARPPRLPRPRPRPIHEPRP
- shrunken log2 fold change: -0.0242

Sequence: RRIRARPPRLPRPRPRPIIFPRP
- shrunken log2 fold change: -0.323

Sequence: RRIRARPPRLPRPRPRPIKMPRP
- shrunken log2 fold change: 0.0129

Sequence: RRIRARPPRLPRPRPRPIKTPRP
- shrunken log2 fold change: 0.213

Sequence: RRIRARPPRLPRPRPRPIMNPRP
- shrunken log2 fold change: -0.151

Sequence: RRIRARPPRLPRPRPRPINGPRP
- shrunken log2 fold change: -0.00875

Sequence: RRIRARPPRLPRPRPRPINKPRP
- shrunken log2 fold change: -0.311

Sequence: RRIRARPPRLPRPRPRPIPHPRP
- shrunken log2 fold change: 0.0126

Sequence: RRIRARPPRLPRPRPRPISIPRP
- shrunken log2 fold change: -0.439

Sequence: RRIRARPPRLPRPRPRPISWPRP
- shrunken log2 fold change: 0.508

Sequence: RRIRARPPRLPRPRPRPIVSPRP
- shrunken log2 fold change: 0.0293

Sequence: RRIRARPPRLPRPRPRPIWAPRP
- shrunken log2 fold change: 0.439

Sequence: RRIRARPPRLPRPRPRPIWWPRP
- shrunken log2 fold change: -0.00662

Sequence: RRIRARPPRLPRPRPRPKAQPRP
- shrunken log2 fold change: 1.26

Sequence: RRIRARPPRLPRPRPRPKCHPRP
- shrunken log2 fold change: 0.161

Sequence: RRIRARPPRLPRPRPRPKCYPRP
- shrunken log2 fold change: 0.00925

Sequence: RRIRARPPRLPRPRPRPKDAPRP
- shrunken log2 fold change: 0.347

Sequence: RRIRARPPRLPRPRPRPKDPPRP
- shrunken log2 fold change: 0.211

Sequence: RRIRARPPRLPRPRPRPKFFPRP
- shrunken log2 fold change: 0.305

Sequence: RRIRARPPRLPRPRPRPKFVPRP
- shrunken log2 fold change: 0.301

Sequence: RRIRARPPRLPRPRPRPKFYPRP
- shrunken log2 fold change: -0.214

Sequence: RRIRARPPRLPRPRPRPKHHPRP
- shrunken log2 fold change: -0.00948

Sequence: RRIRARPPRLPRPRPRPKISPRP
- shrunken log2 fold change: 0.173

Sequence: RRIRARPPRLPRPRPRPKKNPRP
- shrunken log2 fold change: 0.441

Sequence: RRIRARPPRLPRPRPRPKKRPRP
- shrunken log2 fold change: 0.626

Sequence: RRIRARPPRLPRPRPRPKLEPRP
- shrunken log2 fold change: 0.623

Sequence: RRIRARPPRLPRPRPRPKLRPRP
- shrunken log2 fold change: 0.178

Sequence: RRIRARPPRLPRPRPRPKMCPRP
- shrunken log2 fold change: -0.0542

Sequence: RRIRARPPRLPRPRPRPKPEPRP
- shrunken log2 fold change: 0.223

Sequence: RRIRARPPRLPRPRPRPKQMPRP
- shrunken log2 fold change: 0.439

Sequence: RRIRARPPRLPRPRPRPKRAPRP
- shrunken log2 fold change: 0.65

Sequence: RRIRARPPRLPRPRPRPKRSPRP
- shrunken log2 fold change: 0.427

Sequence: RRIRARPPRLPRPRPRPKSIPRP
- shrunken log2 fold change: -0.078

Sequence: RRIRARPPRLPRPRPRPKSKPRP
- shrunken log2 fold change: 0.257

Sequence: RRIRARPPRLPRPRPRPKSQPRP
- shrunken log2 fold change: 0.286

Sequence: RRIRARPPRLPRPRPRPKTDPRP
- shrunken log2 fold change: 0.876

Sequence: RRIRARPPRLPRPRPRPKTSPRP
- shrunken log2 fold change: 0.331

Sequence: RRIRARPPRLPRPRPRPKVNPRP
- shrunken log2 fold change: -0.109

Sequence: RRIRARPPRLPRPRPRPKWHPRP
- shrunken log2 fold change: 0.235

Sequence: RRIRARPPRLPRPRPRPKYPPRP
- shrunken log2 fold change: -0.178

Sequence: RRIRARPPRLPRPRPRPLDGPRP
- shrunken log2 fold change: 0.425

Sequence: RRIRARPPRLPRPRPRPLECPRP
- shrunken log2 fold change: 0.184

Sequence: RRIRARPPRLPRPRPRPLEEPRP
- shrunken log2 fold change: 1.04

Sequence: RRIRARPPRLPRPRPRPLGKPRP
- shrunken log2 fold change: 0.237

Sequence: RRIRARPPRLPRPRPRPLHIPRP
- shrunken log2 fold change: -0.559

Sequence: RRIRARPPRLPRPRPRPLHRPRP
- shrunken log2 fold change: 0.281

Sequence: RRIRARPPRLPRPRPRPLIFPRP
- shrunken log2 fold change: 0.000397

Sequence: RRIRARPPRLPRPRPRPLIGPRP
- shrunken log2 fold change: 0.107

Sequence: RRIRARPPRLPRPRPRPLISPRP
- shrunken log2 fold change: -0.0384

Sequence: RRIRARPPRLPRPRPRPLKGPRP
- shrunken log2 fold change: 0.052

Sequence: RRIRARPPRLPRPRPRPLLSPRP
- shrunken log2 fold change: 0.367

Sequence: RRIRARPPRLPRPRPRPLPQPRP
- shrunken log2 fold change: 0.64

Sequence: RRIRARPPRLPRPRPRPLQDPRP
- shrunken log2 fold change: 0.25

Sequence: RRIRARPPRLPRPRPRPLQRPRP
- shrunken log2 fold change: 0.58

Sequence: RRIRARPPRLPRPRPRPLRMPRP
- shrunken log2 fold change: 0.655

Sequence: RRIRARPPRLPRPRPRPLSCPRP
- shrunken log2 fold change: 0.214

Sequence: RRIRARPPRLPRPRPRPLSDPRP
- shrunken log2 fold change: 0.248

Sequence: RRIRARPPRLPRPRPRPLSSPRP
- shrunken log2 fold change: 0.2

Sequence: RRIRARPPRLPRPRPRPLTSPRP
- shrunken log2 fold change: 0.209

Sequence: RRIRARPPRLPRPRPRPLTWPRP
- shrunken log2 fold change: 0.272

Sequence: RRIRARPPRLPRPRPRPLVYPRP
- shrunken log2 fold change: -0.372

Sequence: RRIRARPPRLPRPRPRPLWDPRP
- shrunken log2 fold change: 0.022

Sequence: RRIRARPPRLPRPRPRPLWTPRP
- shrunken log2 fold change: 0.115

Sequence: RRIRARPPRLPRPRPRPLWVPRP
- shrunken log2 fold change: 0.959

Sequence: RRIRARPPRLPRPRPRPLYDPRP
- shrunken log2 fold change: -0.124

Sequence: RRIRARPPRLPRPRPRPLYMPRP
- shrunken log2 fold change: -0.48

Sequence: RRIRARPPRLPRPRPRPLYVPRP
- shrunken log2 fold change: -0.0921

Sequence: RRIRARPPRLPRPRPRPMAAPRP
- shrunken log2 fold change: 3.13

Sequence: RRIRARPPRLPRPRPRPMANPRP
- shrunken log2 fold change: 0.285

Sequence: RRIRARPPRLPRPRPRPMATPRP
- shrunken log2 fold change: 0.601

Sequence: RRIRARPPRLPRPRPRPMCFPRP
- shrunken log2 fold change: 0.18

Sequence: RRIRARPPRLPRPRPRPMCPPRP
- shrunken log2 fold change: 0.0408

Sequence: RRIRARPPRLPRPRPRPMEQPRP
- shrunken log2 fold change: 0.0309

Sequence: RRIRARPPRLPRPRPRPMFTPRP
- shrunken log2 fold change: -0.0981

Sequence: RRIRARPPRLPRPRPRPMGGPRP
- shrunken log2 fold change: 0.0776

Sequence: RRIRARPPRLPRPRPRPMHAPRP
- shrunken log2 fold change: 0.409

Sequence: RRIRARPPRLPRPRPRPMHGPRP
- shrunken log2 fold change: 0.311

Sequence: RRIRARPPRLPRPRPRPMHHPRP
- shrunken log2 fold change: 0.112

Sequence: RRIRARPPRLPRPRPRPMIHPRP
- shrunken log2 fold change: -0.119

Sequence: RRIRARPPRLPRPRPRPMLRPRP
- shrunken log2 fold change: 0.155

Sequence: RRIRARPPRLPRPRPRPMLYPRP
- shrunken log2 fold change: 0.249

Sequence: RRIRARPPRLPRPRPRPMMMPRP
- shrunken log2 fold change: 0.246

Sequence: RRIRARPPRLPRPRPRPMNGPRP
- shrunken log2 fold change: -0.0023

Sequence: RRIRARPPRLPRPRPRPMNMPRP
- shrunken log2 fold change: -0.0785

Sequence: RRIRARPPRLPRPRPRPMNPPRP
- shrunken log2 fold change: -0.0638

Sequence: RRIRARPPRLPRPRPRPMNWPRP
- shrunken log2 fold change: 0.351

Sequence: RRIRARPPRLPRPRPRPMPGPRP
- shrunken log2 fold change: -0.0941

Sequence: RRIRARPPRLPRPRPRPMPHPRP
- shrunken log2 fold change: 0.145

Sequence: RRIRARPPRLPRPRPRPMPLPRP
- shrunken log2 fold change: -0.0326

Sequence: RRIRARPPRLPRPRPRPMRGPRP
- shrunken log2 fold change: 1.56

Sequence: RRIRARPPRLPRPRPRPMRVPRP
- shrunken log2 fold change: 0.789

Sequence: RRIRARPPRLPRPRPRPMRWPRP
- shrunken log2 fold change: 0.618

Sequence: RRIRARPPRLPRPRPRPMTGPRP
- shrunken log2 fold change: 0.0159

Sequence: RRIRARPPRLPRPRPRPMTQPRP
- shrunken log2 fold change: 0.249

Sequence: RRIRARPPRLPRPRPRPMTWPRP
- shrunken log2 fold change: 0.307

Sequence: RRIRARPPRLPRPRPRPMVFPRP
- shrunken log2 fold change: 0.508

Sequence: RRIRARPPRLPRPRPRPMVQPRP
- shrunken log2 fold change: -0.081

Sequence: RRIRARPPRLPRPRPRPMWFPRP
- shrunken log2 fold change: 0.0716

Sequence: RRIRARPPRLPRPRPRPMYHPRP
- shrunken log2 fold change: -0.215

Sequence: RRIRARPPRLPRPRPRPMYSPRP
- shrunken log2 fold change: -0.08

Sequence: RRIRARPPRLPRPRPRPNCGPRP
- shrunken log2 fold change: 0.281

Sequence: RRIRARPPRLPRPRPRPNDEPRP
- shrunken log2 fold change: 0.361

Sequence: RRIRARPPRLPRPRPRPNDSPRP
- shrunken log2 fold change: -0.225

Sequence: RRIRARPPRLPRPRPRPNDWPRP
- shrunken log2 fold change: 0.466

Sequence: RRIRARPPRLPRPRPRPNDYPRP
- shrunken log2 fold change: -0.471

Sequence: RRIRARPPRLPRPRPRPNECPRP
- shrunken log2 fold change: -0.409

Sequence: RRIRARPPRLPRPRPRPNEKPRP
- shrunken log2 fold change: -0.0878

Sequence: RRIRARPPRLPRPRPRPNESPRP
- shrunken log2 fold change: 0.102

Sequence: RRIRARPPRLPRPRPRPNFTPRP
- shrunken log2 fold change: 0.134

Sequence: RRIRARPPRLPRPRPRPNISPRP
- shrunken log2 fold change: 0.0983

Sequence: RRIRARPPRLPRPRPRPNITPRP
- shrunken log2 fold change: -0.0796

Sequence: RRIRARPPRLPRPRPRPNMIPRP
- shrunken log2 fold change: -0.194

Sequence: RRIRARPPRLPRPRPRPNNQPRP
- shrunken log2 fold change: -0.309

Sequence: RRIRARPPRLPRPRPRPNPDPRP
- shrunken log2 fold change: 0.571

Sequence: RRIRARPPRLPRPRPRPNPMPRP
- shrunken log2 fold change: 0.287

Sequence: RRIRARPPRLPRPRPRPNPPPRP
- shrunken log2 fold change: 0.458

Sequence: RRIRARPPRLPRPRPRPNPYPRP
- shrunken log2 fold change: -0.115

Sequence: RRIRARPPRLPRPRPRPNSDPRP
- shrunken log2 fold change: 0.0804

Sequence: RRIRARPPRLPRPRPRPNSSPRP
- shrunken log2 fold change: 0.184

Sequence: RRIRARPPRLPRPRPRPNTCPRP
- shrunken log2 fold change: 0.136

Sequence: RRIRARPPRLPRPRPRPNTYPRP
- shrunken log2 fold change: -0.627
